{
  "source": "the supplement of paper PMC9112550",
  "about": "“Optimization of the antimicrobial peptide Bac7 by deep mutational scanning” (BMC Biology, 2022);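 note: peptides expressed intracellularly from a pBAD plasmid library in pooled LB shake-flask culture, induced with 0.3% L-arabinose, DNA abundance read by NGS, three biological replicates, DESeq2 with apeglm shrinkage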",
  "system": "Escherichia coli TOP10",
  "test": "shrunken log2 fold change of peptide-encoding DNA abundance (4.5 h post-induction vs induction); higher = less antimicrobial activity (less host growth inhibition)",
  "details": "time post-induction: 4.5 h; library: site-saturation at positions 5, 18, 19, 20",
  "data": [
    {"sequence": "RRIRFRPPRLPRPRPRPQDEPRP", "values": [
      {"measurement": "shrunken log2 fold change", "value": -0.0187}
    ]},
    {"sequence": "RRIRARPPRLPRPRPRPPHAPRP", "values": [
      {"measurement": "shrunken log2 fold change", "value": 0.964}
    ]},
    {"sequence": "RRIRERPPRLPRPRPRPYWCPRP", "values": [
      {"measurement": "shrunken log2 fold change", "value": -1.14}
    ]},
    {"sequence": "RRIRNRPPRLPRPRPRPSVNPRP", "values": [
      {"measurement": "shrunken log2 fold change", "value": -0.201}
    ]},
    {"sequence": "RRIRQRPPRLPRPRPRPAMNPRP", "values": [
      {"measurement": "shrunken log2 fold change", "value": -0.115}
    ]},
    {"sequence": "RRIRQRPPRLPRPRPRPYEHPRP", "values": [
      {"measurement": "shrunken log2 fold change", "value": 0.00367}
    ]},
    {"sequence": "RRIRMRPPRLPRPRPRPQVRPRP", "values": [
      {"measurement": "shrunken log2 fold change", "value": -0.0122}
    ]},
    {"sequence": "RRIRTRPPRLPRPRPRPCAVPRP", "values": [
      {"measurement": "shrunken log2 fold change", "value": -0.262}
    ]},
    {"sequence": "RRIRERPPRLPRPRPRPKAPPRP", "values": [
      {"measurement": "shrunken log2 fold change", "value": 0.124}
    ]},
    {"sequence": "RRIRARPPRLPRPRPRPQAGPRP", "values": [
      {"measurement": "shrunken log2 fold change", "value": 0.195}
    ]},
    {"sequence": "RRIRQRPPRLPRPRPRPWCEPRP", "values": [
      {"measurement": "shrunken log2 fold change", "value": -0.105}
    ]},
    {"sequence": "RRIRGRPPRLPRPRPRPGPNPRP", "values": [
      {"measurement": "shrunken log2 fold change", "value": 0.941}
    ]},
    {"sequence": "RRIRTRPPRLPRPRPRPYCVPRP", "values": [
      {"measurement": "shrunken log2 fold change", "value": -0.142}
    ]},
    {"sequence": "RRIRMRPPRLPRPRPRPWMKPRP", "values": [
      {"measurement": "shrunken log2 fold change", "value": -0.234}
    ]},
    {"sequence": "RRIRTRPPRLPRPRPRPNFWPRP", "values": [
      {"measurement": "shrunken log2 fold change", "value": 0.31}
    ]},
    {"sequence": "RRIRIRPPRLPRPRPRPFDHPRP", "values": [
      {"measurement": "shrunken log2 fold change", "value": -0.225}
    ]},
    {"sequence": "RRIRPRPPRLPRPRPRPVYGPRP", "values": [
      {"measurement": "shrunken log2 fold change", "value": -0.486}
    ]},
    {"sequence": "RRIRGRPPRLPRPRPRPVPYPRP", "values": [
      {"measurement": "shrunken log2 fold change", "value": 0.11}
    ]},
    {"sequence": "RRIRQRPPRLPRPRPRPIGEPRP", "values": [
      {"measurement": "shrunken log2 fold change", "value": -0.0171}
    ]},
    {"sequence": "RRIRIRPPRLPRPRPRPSKGPRP", "values": [
      {"measurement": "shrunken log2 fold change", "value": -0.142}
    ]},
    {"sequence": "RRIRSRPPRLPRPRPRPEYHPRP", "values": [
      {"measurement": "shrunken log2 fold change", "value": -0.282}
    ]},
    {"sequence": "RRIRRRPPRLPRPRPRPQYTPRP", "values": [
      {"measurement": "shrunken log2 fold change", "value": -0.221}
    ]},
    {"sequence": "RRIRIRPPRLPRPRPRPQKIPRP", "values": [
      {"measurement": "shrunken log2 fold change", "value": -0.148}
    ]},
    {"sequence": "RRIRGRPPRLPRPRPRPSYFPRP", "values": [
      {"measurement": "shrunken log2 fold change", "value": -0.0109}
    ]},
    {"sequence": "RRIRWRPPRLPRPRPRPKRGPRP", "values": [
      {"measurement": "shrunken log2 fold change", "value": 0.239}
    ]},
    {"sequence": "RRIRWRPPRLPRPRPRPEHRPRP", "values": [
      {"measurement": "shrunken log2 fold change", "value": 0.231}
    ]},
    {"sequence": "RRIRMRPPRLPRPRPRPLHYPRP", "values": [
      {"measurement": "shrunken log2 fold change", "value": -0.173}
    ]},
    {"sequence": "RRIRNRPPRLPRPRPRPCVYPRP", "values": [
      {"measurement": "shrunken log2 fold change", "value": -0.215}
    ]},
    {"sequence": "RRIRYRPPRLPRPRPRPLCHPRP", "values": [
      {"measurement": "shrunken log2 fold change", "value": -1.18}
    ]},
    {"sequence": "RRIRNRPPRLPRPRPRPHERPRP", "values": [
      {"measurement": "shrunken log2 fold change", "value": -0.13}
    ]},
    {"sequence": "RRIRGRPPRLPRPRPRPSMRPRP", "values": [
      {"measurement": "shrunken log2 fold change", "value": 1.15}
    ]},
    {"sequence": "RRIRLRPPRLPRPRPRPSCLPRP", "values": [
      {"measurement": "shrunken log2 fold change", "value": -0.392}
    ]},
    {"sequence": "RRIRMRPPRLPRPRPRPQDEPRP", "values": [
      {"measurement": "shrunken log2 fold change", "value": -0.0393}
    ]},
    {"sequence": "RRIRMRPPRLPRPRPRPQLVPRP", "values": [
      {"measurement": "shrunken log2 fold change", "value": 0.00959}
    ]},
    {"sequence": "RRIRGRPPRLPRPRPRPWANPRP", "values": [
      {"measurement": "shrunken log2 fold change", "value": 0.0528}
    ]},
    {"sequence": "RRIRERPPRLPRPRPRPGECPRP", "values": [
      {"measurement": "shrunken log2 fold change", "value": -0.0577}
    ]},
    {"sequence": "RRIRQRPPRLPRPRPRPANFPRP", "values": [
      {"measurement": "shrunken log2 fold change", "value": 0.0982}
    ]},
    {"sequence": "RRIRCRPPRLPRPRPRPWYYPRP", "values": [
      {"measurement": "shrunken log2 fold change", "value": -0.698}
    ]},
    {"sequence": "RRIRKRPPRLPRPRPRPHCGPRP", "values": [
      {"measurement": "shrunken log2 fold change", "value": -0.0593}
    ]},
    {"sequence": "RRIRERPPRLPRPRPRPEWVPRP", "values": [
      {"measurement": "shrunken log2 fold change", "value": 0.241}
    ]},
    {"sequence": "RRIRERPPRLPRPRPRPVSYPRP", "values": [
      {"measurement": "shrunken log2 fold change", "value": 0.0843}
    ]},
    {"sequence": "RRIRLRPPRLPRPRPRPMGWPRP", "values": [
      {"measurement": "shrunken log2 fold change", "value": 0.203}
    ]},
    {"sequence": "RRIRFRPPRLPRPRPRPFVHPRP", "values": [
      {"measurement": "shrunken log2 fold change", "value": -0.728}
    ]},
    {"sequence": "RRIRHRPPRLPRPRPRPCYHPRP", "values": [
      {"measurement": "shrunken log2 fold change", "value": -0.00149}
    ]},
    {"sequence": "RRIRPRPPRLPRPRPRPHQYPRP", "values": [
      {"measurement": "shrunken log2 fold change", "value": -0.623}
    ]},
    {"sequence": "RRIRKRPPRLPRPRPRPLRQPRP", "values": [
      {"measurement": "shrunken log2 fold change", "value": 0.00205}
    ]},
    {"sequence": "RRIRQRPPRLPRPRPRPWLIPRP", "values": [
      {"measurement": "shrunken log2 fold change", "value": -0.289}
    ]},
    {"sequence": "RRIRLRPPRLPRPRPRPSAIPRP", "values": [
      {"measurement": "shrunken log2 fold change", "value": -0.189}
    ]},
    {"sequence": "RRIRARPPRLPRPRPRPRQGPRP", "values": [
      {"measurement": "shrunken log2 fold change", "value": 0.605}
    ]},
    {"sequence": "RRIRNRPPRLPRPRPRPCIKPRP", "values": [
      {"measurement": "shrunken log2 fold change", "value": -0.207}
    ]},
    {"sequence": "RRIRYRPPRLPRPRPRPQYKPRP", "values": [
      {"measurement": "shrunken log2 fold change", "value": -0.179}
    ]},
    {"sequence": "RRIRFRPPRLPRPRPRPTVHPRP", "values": [
      {"measurement": "shrunken log2 fold change", "value": -0.238}
    ]},
    {"sequence": "RRIRSRPPRLPRPRPRPESGPRP", "values": [
      {"measurement": "shrunken log2 fold change", "value": 0.351}
    ]},
    {"sequence": "RRIRGRPPRLPRPRPRPICAPRP", "values": [
      {"measurement": "shrunken log2 fold change", "value": 1.2}
    ]},
    {"sequence": "RRIRVRPPRLPRPRPRPSPKPRP", "values": [
      {"measurement": "shrunken log2 fold change", "value": 0.24}
    ]},
    {"sequence": "RRIRVRPPRLPRPRPRPIICPRP", "values": [
      {"measurement": "shrunken log2 fold change", "value": -0.448}
    ]},
    {"sequence": "RRIRWRPPRLPRPRPRPYIVPRP", "values": [
      {"measurement": "shrunken log2 fold change", "value": -0.727}
    ]},
    {"sequence": "RRIRQRPPRLPRPRPRPEPDPRP", "values": [
      {"measurement": "shrunken log2 fold change", "value": 0.271}
    ]},
    {"sequence": "RRIRWRPPRLPRPRPRPINEPRP", "values": [
      {"measurement": "shrunken log2 fold change", "value": 0.402}
    ]},
    {"sequence": "RRIRCRPPRLPRPRPRPVNDPRP", "values": [
      {"measurement": "shrunken log2 fold change", "value": -0.186}
    ]}
  ]
}
